Target: T161 phosphorylated CDK1 (full-length human CDK1) (human, UniProt P06493 1-297, phosphothreonine at T161)
Assay: SEC

- binding result: binds
B1: Human cyclin B1, residues 165-433 carrying the C167S/C238S/C350S mutations (domain or fragment)
chain: NLSSEYVKDIYAYLRQLEEEQAVRPKYLLGREVTGNMRAILIDWLVQVQMKFRLLQETMYMTVSIIDRFMQNNSVPKKMLQLVGVTAMFIASKYEEMYPPEIGDFAFVTDNTYTKHQIRQMEMKILRALNFGLGRPLPLHFLRRASKIGEVDVEQHTLAKYLMELTMLDYDMVHFPPSQIAAGAFSLALKILDNGEWTPTLQHYLSYTEESLLPVMQHLAKNVVMVNQGLTKHMTVKNKYATSKHAKISTLPQLNSALVQDLAKAVAKV
